Experimental data: patent US20110045008A1

Biological target: platelet GPIIIa (integrin beta3) on platelets (human) (UniProt P05106)
Test: cell-based or functional assay

platelet GPIIIa (integrin beta3) on platelets (human), sequence (P05106 27-788): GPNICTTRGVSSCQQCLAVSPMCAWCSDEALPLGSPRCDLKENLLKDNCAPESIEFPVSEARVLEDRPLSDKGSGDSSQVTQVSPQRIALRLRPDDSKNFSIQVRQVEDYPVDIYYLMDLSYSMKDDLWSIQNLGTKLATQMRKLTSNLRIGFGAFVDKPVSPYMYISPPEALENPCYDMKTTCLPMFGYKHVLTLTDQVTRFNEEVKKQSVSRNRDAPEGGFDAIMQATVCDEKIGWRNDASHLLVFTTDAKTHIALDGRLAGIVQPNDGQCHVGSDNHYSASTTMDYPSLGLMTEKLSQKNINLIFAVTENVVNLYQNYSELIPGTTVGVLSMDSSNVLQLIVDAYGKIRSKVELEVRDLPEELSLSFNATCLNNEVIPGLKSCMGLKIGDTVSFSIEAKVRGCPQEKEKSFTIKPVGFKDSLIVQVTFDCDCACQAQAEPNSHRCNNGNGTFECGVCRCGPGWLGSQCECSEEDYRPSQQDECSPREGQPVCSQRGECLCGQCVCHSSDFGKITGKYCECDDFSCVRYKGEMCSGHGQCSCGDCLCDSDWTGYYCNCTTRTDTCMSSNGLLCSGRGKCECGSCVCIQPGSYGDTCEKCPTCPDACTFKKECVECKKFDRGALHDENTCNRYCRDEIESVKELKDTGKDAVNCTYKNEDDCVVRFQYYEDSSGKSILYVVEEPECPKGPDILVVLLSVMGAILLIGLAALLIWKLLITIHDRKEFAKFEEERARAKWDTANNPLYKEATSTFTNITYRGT

ADAMTS-18 66 amino acid fragment (1156-1221) (from UniProt Q8TE60 1156-1221) (ligand)
platelet fragmentation: 85 µM
